Legend:
[1] = system: retinal function in S. aureus-infected eyes; conditions: treatment 6 h post infection, ERG 24 h post treatment
Description: The percentage amplitude of the a- and b-waves retained in S. aureus (SA)-infected, treated and untreated mice were compared to normal uninfected mice and presented as mean±SD (FIG. 7D).
Scotopic ERG was used to determine retinal function following S. aureus infection and chimeric Ply187AN-KSH3b treatment (6 h post infection). The mice (control, infected and infected+treated) were anesthetized 24 h post Ply187AN-KSH3b treatment, maintained at 37° C. using a heat pad, and the pupils were dilated using 1% tropicamide ophthalmic solution. ERGs were recorded following bilateral mydriasis and at least 4 h of dark adaptation. Silver embedded thread eye electrodes (Ocuscience™ LLC, Kansas City, Mo.) were used to record the ERG. Reference needle electrodes (stainless steel subdermal needle electrodes) were placed in anterior scalp and a ground needle electrode was placed in the tail. ERG responses were acquired using an ERG system (Ocuscience™ LLC, Kansas City, Mo.) and analyzed using ERGVIEW 4.380V. Ganzfeld light stimulus was used to present ten 10 ms flashes, with light intensities, increasing from 0.0001 to 100 cd-s/m^2. The ERG a-wave was measured as amplitude between the ERG baseline and the first negative peak, and the ERG b-wave was measured as amplitude between the first negative peak and the first positive peak.

[2] = system: S. aureus (strain RN6390, USA 300, R 2932, R 2952, R 3000) biofilms; experiment: Biofilm disruption (Live/Dead BacLight staining and CFU count); format: cell-based, Staphylococcus aureus; conditions: 24 h biofilms treated for 30 min
Description: FIGS. 2A-2E depicts the biofilm disruption activity of chimeric Ply187AN-KSH3b. In FIG. 2A-2E, either chimeric Ply187AN-KSH3b or EB (EB C) or Gentamicin (for MDR/MRSA strains/isolates) was applied to cover slips containing S. aureus RN6390 (FIG. 2A), USA 300 (FIG. 2B), R 2932 (FIG. 2C), R 2952 (FIG. 2D) and R3000 (FIG. 2E) biofilms for 30 min. Bacterial killing was assessed via Live/Dead™ staining and subsequent fluorescence microscopy. FIG. 2F depicts the viability of biofilm associated bacteria enumerated by CFU count. Error bars represent the mean±SEM of two independent experiments performed in triplicate.
Biofilm disruption by the chimeric Ply187AN-KSH3b was observed using Live/Dead BacLight™ staining which takes advantage of SYTO™ 9, a green-fluorescent nucleic acid stain and propidium iodide that fluoresces red. SYTO™ 9 labels a bacterial population with an intact membrane and fluoresces green. In contrast, propidium iodide penetrates bacteria with damaged membranes and fluoresces red. Briefly, static biofilms of S. aureus (strain RN6390, USA 300, R 2932, R 2952, R 3000) were grown on glass cover slips in 6 well tissue culture plates in fresh TSB media seeded with S. aureus. After incubation at 37° C. for 24 h, the biofilms were treated for an additional 30 min with chimeric Ply187AN-KSH3b (as per MIC) diluted in EB or with EB/gentamicin alone. The biofilms were then stained with the Live/Dead BacLight™ bacterial viability kit (Invitrogen, Carlsbad, Calif.), per manufacturer's instruction. The cover slips were washed three times with PBS to remove excess stain and cell debris, mounted with mounting oil on a glass slide, and examined with an Eclipse 90i fluorescence microscope (Nikon, Melville, N.Y.).

[3] = system: cultured microglia, Müller glia and RPE; experiment: Cytotoxicity analysis in vitro; format: cell-based; conditions: data not shown
[4] = system: S. aureus RN6390 endophthalmitis; experiment: Mouse S. aureus endophthalmitis: clinical score and slit lamp microscopy; format: in vivo, C57BL/6 mice; conditions: for mean clinical score: scored after 24 h, scale 0 to 4
Description: FIGS. 3A-3E show the effects of intravitreal injection of chimeric Ply187AN-KSH3b on the severity of S. aureus endophthalmitis. The eyes (n=10) of C57BL/6 mice were infected with S. aureus strain RN6390 and following either 6 h or 12 h post-infection, Ply187AN-KSH3b or EB (EB C) was administered by intravitreal injection. FIG. 3A depicts individual eyes assigned clinical scores (range 0 to 4; black dots represent an eye) and presented as mean clinical scores (bar with SEM). […] FIG. 3E depicts the total number of dead cells in the retinal sections that were counted and are presented as mean±SD of the TUNEL positive cells. A student's t test (**, p<0.005) was used for the statistical analysis and comparisons were made between the S. aureus (SA) control, SA+EBC, and SA+Ply187AN-KSH3b-treated group.
The eyes of C57BL/6 mice (female, 8 week old) were intravitreally injected with 1 μl of PBS containing 5000 colony forming units (CFU) of S. aureus RN6390 to induce endophthalmitis as described previously (Kumar et al., supra). The chimeric Ply187AN-KSH3b (1 μg/μl) treatment in EB was given after 6 h (group I) or 12 h (group II) post infection. In the control group, the eyes were treated with EB (EB C). The eye infected with S. aureus without any treatment was used as a disease control. Clinical examinations were performed using slit lamp microscopy. The ocular disease was graded, and clinical scores from 0 to 4.0 were assigned using the previously described scale (Whiston et al., supra; Ramadan et al. 2006. Curr. Eye Res. 31:955-965). The clinical score of 4 is considered as 100 percent damage. Based on this, the percent damage and percent retention of eyes were calculated in both Ply187AN-KSH3b-treated vs untreated S. aureus infected eyes. Mice were treated in compliance with the ARVO Statement for the Use of Animals in Ophthalmic and Vision Research and all procedures were approved by the Institutional Animal Care and Use Committee (IACUC) of Wayne State University.
We hypothesized that similar to antibiotics, chimeric Ply187AN-KSH3b would have beneficial effects in protecting the eyes from endophthalmitis. To test this hypothesis, we used a C57BL/6 mouse model of S. aureus endophthalmitis. Chimeric Ply187AN-KSH3b was administrated intravitreally (1 μg/eye in 1 μl volume of EB) 6 h and 12 h after bacterial infection. Eyes without any treatment or eyes injected with EB served as controls. After 24 h, each infected eye was assigned a clinical score.

B1: Ply187AN-KSH3b: staphylococcal peptidoglycan hydrolase fusion protein: endopeptidase domain of prophage endolysin Ply187 plus SH3b cell wall-binding domain of phage K endolysin LysK (SEQ ID NO:1) (protein)
chain: MALPKTGKPTAKQVVDWAINLIGSGVDVDGYYGRQCWDLPNYIFNRYWNFKTPGNARDMAWYRYPEGFKVFRNTSDFVPKPGDIAVWTGGNYNWNTWGHTGIVVGPSTKSYFYSVDQNWNNSNSYVGSPAAKIKHSYFGVTHFVRPAYKAEPKPTPPLESTPATRPVTGSWKKNQYGTWYKPENATFVNGNQPIVTRIGSPFLNAPVGGNLPAGATIVYDEVCIQAGHIWIGYNAYNGNRVYCPVRTCQGVPPNQIPGVAWGVFKVEHHHHHH
modifications: Chemically Synthesized Fusion Protein
ERG a- and b-wave amplitudes [1]: no significant decline in a- or b-wave amplitudes
a- and b-wave amplitudes retained ([1]; vs uninfected): 90-95%
biofilm disruption by Live/Dead staining [2]: successfully disrupted biofilms
CFU counts of biofilm associated bacteria ([2]; all strains tested): almost zero
retinal cell death in vitro [3]: does not cause retinal cell death
slit lamp microscopy appearance of eyes ([4]; 1 μg/eye intravitreal): clear/transparent corneas and/or anterior chambers
mean clinical score ([4]; treatment 6 h post infection, 1 μg/eye intravitreal): 0.2
mean clinical score ([4]; treatment 12 h post infection, 1 μg/eye intravitreal): 0.3
retention of eyes (conversion of clinical scores) ([4]; treatment group, clinical score 4 = 100 percent damage): 90-95%

— patent US20150335719A1, “Intravitreal Injection of a Chimeric Phage Endolysin Ply187; Protection from Staphylococcus aureus Endophthalmitis” (priority 2014, published 2015)
